According to EP4682166A1 (Guangzhou Enmai Biotechnology Co., Ltd, dated 2026):
One block for each binder: values may come before it.

Columns and labels:
[1] = target: T1, human NMI (N-myc Interacting protein) (human, UniProt Q13287 1-307, limits assumed); test: I-ELISA, hNMI coated 1 ug/mL; antibody 19.53125 ng/mL
T1 construct: Immunogen and ELISA coating antigen; also called hNMI; antigen 1
T1 sequence (looked up): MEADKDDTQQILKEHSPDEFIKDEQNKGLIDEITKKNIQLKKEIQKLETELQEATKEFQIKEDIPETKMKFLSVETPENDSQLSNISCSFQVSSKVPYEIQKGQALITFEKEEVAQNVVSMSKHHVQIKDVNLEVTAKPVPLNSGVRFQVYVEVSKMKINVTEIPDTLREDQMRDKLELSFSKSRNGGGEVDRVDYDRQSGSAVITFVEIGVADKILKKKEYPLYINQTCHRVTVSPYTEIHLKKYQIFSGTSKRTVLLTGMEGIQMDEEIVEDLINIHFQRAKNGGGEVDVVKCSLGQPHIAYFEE

[2] = target: T1, human NMI (N-myc Interacting protein); test: I-ELISA, hNMI coated 1 ug/mL; antibody 9.765625 ng/mL
[3] = target: T1, human NMI (N-myc Interacting protein); test: I-ELISA, hNMI coated 1 ug/mL; antibody 312.5 ng/mL
[4] = target: T1, human NMI (N-myc Interacting protein); test: I-ELISA, hNMI coated 1 ug/mL; antibody 1.2207031 ng/mL
[5] = target: T1, human NMI (N-myc Interacting protein); test: I-ELISA, hNMI coated 1 ug/mL; antibody 625 ng/mL
[6] = target: T1, human NMI (N-myc Interacting protein); test: I-ELISA, hNMI coated 1 ug/mL; antibody 1250 ng/mL
[7] = target: T1, human NMI (N-myc Interacting protein); test: sandwich ELISA; coating antibody 2.5 ug/mL, detection 94C4-biotin 0.5 ug/mL
[8] = target: T1, human NMI (N-myc Interacting protein); test: indirect ELISA, human NMI coated; supernatant dilution series
[9] = target: T1, human NMI (N-myc Interacting protein); test: indirect ELISA, human NMI coated (repeats Table 3)
[10] = target: T1, human NMI (N-myc Interacting protein); test: I-ELISA, hNMI coated 1 ug/mL; antibody 78.125 ng/mL
[11] = target: T1, human NMI (N-myc Interacting protein); test: I-ELISA, hNMI coated 1 ug/mL; antibody 4.8828125 ng/mL
[12] = target: T1, human NMI (N-myc Interacting protein); test: I-ELISA, hNMI coated 1 ug/mL; antibody 2.4414063 ng/mL
[13] = target: T1, human NMI (N-myc Interacting protein); test: I-ELISA, hNMI coated 1 ug/mL; antibody 156.25 ng/mL
[14] = target: T1, human NMI (N-myc Interacting protein); test: I-ELISA, hNMI coated 1 ug/mL; antibody 2500 ng/mL
[15] = target: T1, human NMI (N-myc Interacting protein); test: I-ELISA, hNMI coated 1 ug/mL; antibody 39.0625 ng/mL
[16] = target: T1, human NMI (N-myc Interacting protein); test: indirect ELISA, human NMI coated; supernatant 1/27
[17] = target: T1, human NMI (N-myc Interacting protein); test: indirect ELISA, human NMI coated (repeats Table 1)
[18] = target: T1, human NMI (N-myc Interacting protein); test: indirect ELISA, human NMI coated; supernatant dilution series; remark: listed apart in the source
[19] = target: T1, human NMI (N-myc Interacting protein); test: indirect ELISA, human NMI coated; supernatant undiluted
[20] = target: T1, human NMI (N-myc Interacting protein); test: indirect ELISA, human NMI coated; supernatant 1/6561
[21] = target: T1, human NMI (N-myc Interacting protein); test: indirect ELISA, human NMI coated; supernatant 1/59049
[22] = target: T1, human NMI (N-myc Interacting protein); test: indirect ELISA, human NMI coated; supernatant 1/81
[23] = target: T1, human NMI (N-myc Interacting protein); test: indirect ELISA, human NMI coated; supernatant 1/2187
[24] = target: T1, human NMI (N-myc Interacting protein); test: indirect ELISA, human NMI coated; supernatant 1/9
[25] = target: T1, human NMI (N-myc Interacting protein); test: indirect ELISA, human NMI coated; supernatant 1/3
[26] = target: T1, human NMI (N-myc Interacting protein); test: indirect ELISA, human NMI coated; supernatant 1/729
[27] = target: T1, human NMI (N-myc Interacting protein); test: indirect ELISA, human NMI coated; supernatant 1/19683
[28] = target: T1, human NMI (N-myc Interacting protein); test: indirect ELISA, human NMI coated; supernatant 1/243
[29] = target: T2, human NMI (N-myc Interacting protein), recombinant protein (human, UniProt Q13287 1-307, limits assumed); test: sandwich ELISA; detection 39B4-1-biotin; hNMI 1.235 ng/mL
T2 construct: Gene ID: 9111; also called hNMI; antigen
T2 sequence (looked up): T1 sequence (looked up)

[30] = target: T2, human NMI (N-myc Interacting protein), …; test: sandwich ELISA; detection 39B4-1-biotin; hNMI 11.111 ng/mL
[31] = target: T2, human NMI (N-myc Interacting protein), …; test: sandwich ELISA; detection 39B4-1-biotin; hNMI 33.333 ng/mL
[32] = target: T2, human NMI (N-myc Interacting protein), …; test: sandwich ELISA; detection 39B4-1-biotin; hNMI 100.000 ng/mL
[33] = target: T2, human NMI (N-myc Interacting protein), …; test: indirect ELISA, coated hNMI
[34] = target: T2, human NMI (N-myc Interacting protein), …; test: sandwich ELISA; detection 39B4-1-biotin; hNMI 3.704 ng/mL
[35] = target: T2, human NMI (N-myc Interacting protein), …; test: sandwich ELISA; detection 98G10-1-biotin; hNMI 11.111 ng/mL
[36] = target: T2, human NMI (N-myc Interacting protein), …; test: sandwich ELISA; detection 98G10-1-biotin; hNMI 33.333 ng/mL
[37] = target: T2, human NMI (N-myc Interacting protein), …; test: sandwich ELISA; detection 98G10-1-biotin; hNMI 1.235 ng/mL
[38] = target: T2, human NMI (N-myc Interacting protein), …; test: sandwich ELISA; detection 98G10-1-biotin; hNMI 3.704 ng/mL
[39] = target: T2, human NMI (N-myc Interacting protein), …; test: sandwich ELISA; detection 98G10-1-biotin; hNMI 100.000 ng/mL

B2: 39B4 (antibody, V domains shown)
VH: QEQLVESGGGLVQPEGSLTLTCTASGFSFSSSYWICWVRQAPGKGLEWIACIYAGTSGSTYYASWAKGRFTISKTSSTTVDLQMNSLTAADTATYFCARAGYYTYGAGVYIYPSSFKLWGPGTLVTVSS
VL: DVVMTQTPASVEAAVGGTVTIKCQASESIGNALAWYQQKPGQPPKLLIYSASNLASGVPSRFSGSGSGTQFTLTISDLECADAATYYCQSYYYSSSSITFGGGTEVVVK
notes: Rabbit monoclonal antibody; also called 39B4-1; 39B4-1-biotin (biotin-labelled form)
OD450 [1]: 0.529 OD450
OD450 [2]: 0.296 OD450
ELISA OD [16]: 3.35 OD
OD450 [3]: 1.99 OD450
EC50 [17]: 0.567 ng/mL
EC50 [18]: 0.567 ng/mL
ELISA OD [19]: 3.4 OD
OD450 [4]: 0.077 OD450
ELISA OD [20]: 1.61 OD
ELISA OD [21]: 0.415 OD
OD450 [5]: 1.99 OD450
OD450 [6]: 2.13 OD450
ELISA OD [22]: 3.28 OD
detection limit (sensitivity) [7]: 40 pg/mL
ELISA OD [23]: 2.32 OD
ELISA OD [24]: 3.41 OD
OD450 [10]: 1.43 OD450
OD450 [11]: 0.159 OD450
OD450 [12]: 0.099 OD450
ELISA OD [25]: 3.43 OD
ELISA OD [26]: 2.76 OD
OD450 [13]: 1.8 OD450
OD450 [14]: 2.25 OD450
ELISA OD [27]: 0.758 OD
OD450 [15]: 0.828 OD450
ELISA OD [28]: 3.1 OD

B3: 240B10-1 (antibody, V domains shown)
VH: QSLEESGGRLVTPGGSLTLTCTVSGIDLSSYTMGWVRQAPGKGLEYIGIISGGGRTYYASWAKGRFTISKTSSTTVDLKVTSLTTEDTATYFCARIYTLWGQGTLVTVSS
VL: QVLTQTLASVSAAVGGTVTINCQSSQSVYNNDYLAWFQQKSGQPPKQLIHSASKLASGVPSRFKGSGSGTQFTLTINDVQCDDAATYYCLGGYDCYSADCNVFGGGTEVVVK
notes: Rabbit monoclonal antibody; also called 240B10-1-biotin (biotin-labelled form)
OD450 [1]: 0.573 OD450
OD450 [2]: 0.333 OD450
OD450 [3]: 2.19 OD450
OD450 [4]: 0.077 OD450
OD450 [5]: 2.2 OD450
OD450 [6]: 2.13 OD450
detection limit (sensitivity) [7]: 60 pg/mL
EC50 [8]: 2.6 ng/mL
EC50 [9]: 2.6 ng/mL
OD450 [10]: 1.46 OD450
OD450 [11]: 0.163 OD450
OD450 [12]: 0.105 OD450
OD450 [13]: 1.85 OD450
OD450 [14]: 2.15 OD450
OD450 [15]: 0.996 OD450

Now from value to binder:

OD450 [1]: 0.502 OD450
OD450 [2]: 0.243 OD450
OD450 [3]: 1.67 OD450
OD450 [4]: 0.084 OD450
OD450 [5]: 1.62 OD450
OD450 [6]: 1.68 OD450
detection limit (sensitivity) [7]: 60 pg/mL
EC50 [8]: 2.51 ng/mL
EC50 [9]: 2.51 ng/mL
OD450 [10]: 1.26 OD450
OD450 [11]: 0.143 OD450
OD450 [12]: 0.099 OD450
OD450 [13]: 1.36 OD450
OD450 [14]: 1.85 OD450
OD450 [15]: 0.838 OD450
B1: B-8 (antibody, V domains shown)
VH: QSLEESGGDLVKPGASLTLTCTASGFSFSSSYYMCWVRQAPGKGLEWIACIYAGSSGSTYYASWAKGRFTISKTSSTTVTLQMTSLTAADTATYFCAREYSYDDYGDFWGFNLWGPGTLVTVSS
VL: ALVMTQTPSSVSAAVGGTVTINCQASQNIYTNLAWYQQKPGQPPKLLIYGASNLESGVPSRFKGSGSGTEYTLTISDLECDDAATYYCQSSLYSRIADRANAFGGGTEVVVK
notes: Rabbit monoclonal antibody; also called B8-1; B-8-biotin (biotin-labelled form)

OD450 [29]: 0.372 OD450
OD450 [30]: 1.67 OD450
OD450 [31]: 2.75 OD450
OD450 [32]: 3.22 OD450
EC50 [33]: 32.7 ng/mL
OD450 [34]: 0.735 OD450
OD450 [35]: 1.36 OD450
OD450 [36]: 2.51 OD450
OD450 [37]: 0.292 OD450
OD450 [38]: 0.627 OD450
OD450 [39]: 3.1 OD450
B4: monoclonal antibody 94C4 (antibody, V domains shown)
VH: QSLEESGGGLVQPEGSLTLTCKASGFDFSSNAMCWVRQAPGKGLEWIACISSASSGSSGSTYYASWAKGRFTISKTSSTTVTLQMTSLTAADMATYFCARDGYDLWGPGTLVTVSS
VL: QVLTQTPSSVSAAVGGTVTISCQSSPSVYNNYLSWFQQKPGQSPKLLIYRVSTLASGVPSRFSGSGSGTQFTLTISGVQCDDAATYYCAGGYDSASDTYVFGGGTEVVVK
notes: Rabbit monoclonal antibody; Used biotin-labelled as detection antibody (94C4-1-biotin); also called 94C4-1
